The results in this text go back to publication PMC11233663, “ZBP1 condensate formation synergizes Z-NAs recognition and signal transduction” (Cell Death & Disease, 2024).

Changes are numbered by the printed parent chain.

One may read the stoichiometry N as a count of units in the complex or per binding partner.

In one data set the target is Thioflavin T (ThT). As to the kind of experiment: ThT binding assay (ThT fluorescence emission spectrum). The conditions noted are these: read off a plot.
Data set [1] addresses human ZBP1-Zαβ (residues 1-166) (human) (UniProt Q9H171). As to the kind of experiment: dynamic light scattering; ZBP1-Zαβ at 5 mg/mL (high concentration), 20 mM Tris-HCl pH 7.4, 100 mM NaCl, room temperature.
Data set [2] shares this target. As to the kind of experiment: SAXS; ZBP1-Zαβ at 5 mg/mL, 20 mM Tris-HCl pH 7.4, 100 mM NaCl.
The target in the next data set is T1, mCherry-ZBP1-Zαβ (Homo sapiens, UniProt Q9H171 1-166).
T1 sequence: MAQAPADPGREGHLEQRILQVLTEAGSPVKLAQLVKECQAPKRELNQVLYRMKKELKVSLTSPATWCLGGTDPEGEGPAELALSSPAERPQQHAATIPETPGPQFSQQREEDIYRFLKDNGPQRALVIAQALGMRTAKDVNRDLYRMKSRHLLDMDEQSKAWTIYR
As to the kind of experiment: in vitro co-condensation (microscopy); Z-RNA promotes condensates; EMSA: protein 0, 5, 10, 20 nM with 10 nM dsDNA, on ice 1 h, 6% polyacrylamide; protein and DNA stocks in 20 mM Tris-HCl pH 7.4, 100 mM NaCl. The settings on record: protein: recombinant; tags: mCherry fusion; label: 5'-FAM.

Data set [3] concerns the molecule itself. Nature of the data set: negative-staining electron microscopy; purified proteins on carbon films, 0.2% uranyl acetate.
Data set [4] concerns the molecule itself. Nature of the data set: SEC; Superdex 200 10/300, 20 mM Tris-HCl, 1 M NaCl, pH 7.5; elution at the void position.

Consider “ZBP1-RHIM 1 + 2 (residues 168-280) (from UniProt Q9H171) I206A; Q207A; I208A; G209A”, for which, in the data set with Thioflavin T (ThT) (parent: est. 2300), the response turned out to be 880.

As to “ZBP1-RHIM1 (residues 168-224) (from UniProt Q9H171) I206A; Q207A; I208A; G209A”, in the data set with Thioflavin T (ThT) (parent: est. 1900), the response stood at 1200.

In the case of “human ZBP1-Zαβ (residues 1-166) (from UniProt Q9H171 1-166) (domain or fragment)”, the stoichiometry N in data set [1] and in data set [2] was 2 each time.

With ACGCGCGCGCGUUUUUGCGCGCGCGC (structured_RNA, 2'-O-methyl-8-methylguanosine (m8Gm), positions not given) [Z-RNA], the binding result with mCherry-ZBP1-Zαβ was “binds”.

B1: ZBP1-RHIM1 + 2 AAAA (domain or fragment, human, UniProt Q9H171 168-280, looked up)
chain: EDSGRRAKSASIIYQHNPINMICQNGPNSWISIANSEAAAAAHGNIITRQTVSREDGSAGPRHLPSMAPGDSSTWGTLVDPWGPQDIHMEQSILRRVQLGHSNEMRLHGVPSE
notes: also called 4 A mutant of RHIM 1 + 2; 4 A; source: E. coli BL21 Codonplus (DE3)-RIPL, purified (Ni-NTA, Superdex 200 10/300)
Take B1: the binding result in data set [3] is “binds”.

B2: ZBP1-RHIM 1 + 2 (residues 168-280) (domain or fragment, human, UniProt Q9H171 168-280, looked up)
chain: B1 chain with A39I, A40Q, A41I, A42G
notes: the tag is inferred from the purification; also called RHIM 1 + 2 high-oligomer seed; source: E. coli BL21 Codonplus (DE3)-RIPL, purified (Ni-NTA, Superdex 200 10/300)
Regarding B2, the binding result in data set [4] is on record as “binds”.

B3: ZBP1-RHIM1 AAAA (domain or fragment, human, UniProt Q9H171 168-224, looked up)
chain: EDSGRRAKSASIIYQHNPINMICQNGPNSWISIANSEAAAAAHGNIITRQTVSREDG
notes: also called 4 A mutant of ZBP1-RHIM 1; 4 A; source: E. coli BL21 Codonplus (DE3)-RIPL, purified (Ni-NTA, Superdex 200 10/300)
As to B3, the binding result in data set [3] is “binds”.

B4: ZBP1-RHIM1 (residues 168-224) (domain or fragment, human, UniProt Q9H171 168-224, looked up)
chain: B3 chain with A39I, A40Q, A41I, A42G
notes: the tag is inferred from the purification; source: E. coli BL21 Codonplus (DE3)-RIPL, purified (Ni-NTA, Superdex 200 10/300)
For B4, the binding result in data set [4] is recorded as “binds”.
